Measured values published in US10406197B2, “Substances and methods for the use in prevention and/or treatment in Huntington's disease” (AFFIRIS AG, priority 2014, dated 2019).

B1: C6-17: monoclonal antibody, mouse IgG2a, generated by hybridoma technique using peptide p7543 as immunogen; VH/VL SEQ ID No. 60/61 (antibody)
VH: MGWSCIMLFLLSGTAGVLSEVQLQQSGPELVKPGASVKISCKTSGYTFTEYTMHWVKQSHGKSLEWIGGINPNNGGTRYNQKFKGKATLTVDRSSSTAYMELRSLTSEDSAVYYCASLDGRDYWGQGTTLTVSSAKTTAPSVFPLA
light: MVLMLLLLWVSGTCGDIVMSQSPSSLAVSAGEKVTMSCKSSQSLLNSRTRKNYLAWYQQKPGQSPKLLIYWASTRESGVPDRFTGSGSGTDFTLTISSVQAEDLAVYSCKQSYNLLTFGAGTKLELKRADAAPTVSIFPPSSEQLTSGGASVVCFLNNFYPK
modifications: antibody sequence
B2: PRR13: monoclonal antibody, mouse IgG2a, generated by hybridoma technique using peptide p6773 as immunogen; VH/VL SEQ ID No. 62/63 (antibody)
VH: MGWSWVMLFLLSGTGGVLSEVQLQQSAPELVKPGASVKMSCKASGYSFTDFYMKWVKQSHGKGLEWIGDIDPKNGDTFYNQKFKGRATLTVDKSSSTAYMQLNSLTTEDSAVYYCATYYGYTMDYWGQGTSVTVSSAKTTAPSVYPLAPVCGDTTGSSVTLGCLVKGYF
light: MDFQVQIFSFLLISASVIMSRGQIVLTQSPAIMSASLGERVTMTCTASSSVTSSYLHWYQQKPGSSPKLWIYSTSNLASGVPARFSGSGSGTSYSLTISSMEAEDAATYYCHQYRRPPRTFGGGTKLEIKRADAAPTVSIFPPSSEQLTSGGASVVCFLNNFYPR
modifications: antibody sequence
B3: M1D1: monoclonal antibody, mouse IgM, generated using peptide p7564 as immunogen; VH/VL SEQ ID No. 64/65 (antibody)
VH: MDFGLSWVFFVVFYQGVHCEVQLVESGGGLVQPKGSLKLSCAASGFTFNTYAMNWVRQAPGKGLEWVARIRSKSNNYATYYADSVKDRFTISRDDSQSMLYLQMNNLKTEDTAMYYCVRHGEYGNPWFAYWGQGTLVTVSAESQSFPNVFPL
light: MKLPVRLLVLMFWIPASSSDVVMTQTPLSLPVSLGDQASISCRSSQSLVHSNGNTYLHWYLQKPGQSPKLLIYKVSNRFSGVPDRFSGSGSGTDFTLKISRVEAEDLGVYFCSQSTHVPYTFGGGTKLEIKRADAAPTVSIFPPSSEQLTSGGASVVCFLNNFYPK
modifications: antibody sequence

What was measured:
[1] = biological target: T1, recombinant 610 amino acids N-terminal Huntingtin fragment (recHTT610) (Homo sapiens, UniProt P42858, DUP37-38); experiment: Protein capture ELISA against recHTT610; type: binding; conditions: recHTT610 capture ELISA of preselected mAB candidates
T1 construct: the N-terminal 610 aminoacids of human Huntingtin protein extended by two C-terminal V5 tags; made in house; host or cells: HEK293 freestyle cells, transient transfection with precHTT610; NP-40 lysate captured on an anti-V5 coated plate
T1 sequence (P42858 with tags, fused parts or gaps DUP37-38): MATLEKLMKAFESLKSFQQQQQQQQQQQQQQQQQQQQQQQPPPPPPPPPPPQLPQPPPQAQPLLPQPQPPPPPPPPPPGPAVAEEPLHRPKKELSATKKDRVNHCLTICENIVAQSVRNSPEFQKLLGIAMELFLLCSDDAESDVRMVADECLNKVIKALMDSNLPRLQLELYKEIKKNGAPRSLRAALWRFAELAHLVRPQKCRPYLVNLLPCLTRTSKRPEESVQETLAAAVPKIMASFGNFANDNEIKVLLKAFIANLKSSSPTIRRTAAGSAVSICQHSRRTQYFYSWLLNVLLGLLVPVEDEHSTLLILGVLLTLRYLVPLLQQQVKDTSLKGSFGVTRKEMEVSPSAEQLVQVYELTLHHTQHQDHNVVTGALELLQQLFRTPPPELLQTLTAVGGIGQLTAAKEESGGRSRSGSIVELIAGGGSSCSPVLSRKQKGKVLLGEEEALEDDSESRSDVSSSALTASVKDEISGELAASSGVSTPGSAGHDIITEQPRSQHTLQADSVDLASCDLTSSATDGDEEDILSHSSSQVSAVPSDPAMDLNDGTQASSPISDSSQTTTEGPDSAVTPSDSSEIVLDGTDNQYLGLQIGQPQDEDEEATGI
Protocol: A DNA covering the coding region of the N-terminal 610 aminoacids of human Huntingtin protein extended by two C-terminal V5 tags were synthesized and cloned via XbaI and BamHI restriction sites into eukaryotic expression vector pCDH-EF1-MCS IRES Puro (SBI; CatNr. CD532A1) yielding plasmid precHTT610. Cloning procedures were performed according to standard molecular biology procedures essentially as indicated by manufacturers including restriction digestions and ligation reactions (NEB Quick ligase kit; CatNr. M2200L), bacterial transformation followed by clone selection and analysis. […] Protein concentrations were determined using Qubit (Invitrogen; CatNr.Q32866) according to the manufacturer's instructions.
Binding of antibodies to N-terminal fragment HTT610 was determined by a standard protein capture ELISA procedure using Maxisorb™ ELISA plates (Thermo; CatNr. 439454), coated with 50 μl of a 1:5000 rabbit anti V5 mAB (Sigma, CatNr. V8137), blocking with blocking buffer (PBS, 1% BSA, 0.1% Tween 20), capturing of recombinant Huntingtin from HEK cell extracts (100 ng/μl total protein) followed by incubation with several dilutions of mouse anti HTT sera (1:100; 1:300 and 1:900) or with mAB2166 as reference (diluted 1:2000; Millipore, Cat Nr. MAB2166) for 1 hour at RT. […]

[2] = system: caspase 6 cleavage of target peptide spanning caspase region 586 of Huntingtin; experiment: In vitro caspase 6 cleavage inhibition assay; type: biochemical, human; conditions: affinity purified polyclonal antibodies 3 ng/μl, mAB C6-17 10 ng/μl; no protection = 100%
Protocol: Caspase 6 inhibition assays were performed using Maxisorb ELISA plates (Thermo; 439454) whereby 50 μl of 20 nM BSA-coupled peptide (as indicated in FIG. 18) was coated for 1 hour at RT followed by a one hour treatment with 150 μl blocking buffer (PBS, 1% BSA, 0.1% Tween 20), incubation for 1 hour at RT with affinity purified polyclonal sera (3 ng/μl) or affinity purified mABs (10 ng/μl) as indicated, respectively. After several washes with washing buffer (PBS, 0.1% BSA, 0.1% Tween 20), 5 U Caspase 6 enzyme (Enzo; BML SE170-5000) diluted in 1× Caspase 6 Buffer (BioVision; 1068-80) was added to each well and incubated for 30 min at 37° C. Quantification of the newly exposed epitope generated by caspase 6 peptide cleavage that reflected the extent of caspase accessibility was performed by ELISA as described in Example 1 using peptide p7564-induced antibodies for detection of the free C-terminal aspartic acid-containing epitope.

[3] = system: bone marrow derived primary mouse macrophages; experiment: In vitro phagocytosis assay; type: cell-based; conditions: 5 ng/μl antibodies; p9305 beads for PRR13, p9304 beads for C6-17; versus isotype control mouse IgG2a
Protocol: Isolation and in vitro differentiation of macrophages was essentially performed as described e.g. in Zhang et al. 2008 [PMID: 19016445]. In brief, tibia- and femur-derived bone marrow cells from 8 to 12 weeks old BALB/c mice were divided onto 2-3 10 cm-cell culture dishes at a density of 20-30×10^6 cells per dish, differentiated 4 days in RPMI/10% FCS+P/S in the presence of 20 ng/ml M-CSF (RD-Systems, Cat-No: 416-ML-010), redistributed at day 5 into 24-well tissue culture plates at a density of 150.000 cells/well until day 9. 24 hrs before phagocytosis, cells were starved in 500 μl RPMI-media+10% FCS+P/S in absence of M-CSF. […] Antibody-coated fluorescent peptide-beads were subsequently added to differentiated macrophages for 1 hr at 37° C. (in a volume of 200 ul containing 0.5 ug beads/well) allowing for in vitro uptake by phagocytosis. After washing and scraping the cells in ice cold PBS, cells were washed in FACS-Buffer (1×PBS+1% BSA) and analysed for fluorescence signal by standard FACS procedure.

[4] = biological target: T2, recombinant Huntingtin fragment with free aspartic acid 586 at the C-terminus (HTT586) (Homo sapiens, UniProt P42858); experiment: Protein ELISA with recombinant Huntingtin HTT586 versus HTT610; type: binding; conditions: protein capture ELISA, normalized to mAB 2166
T2 construct: recombinant Huntingtin fragment with free aspartic acid 586 at the C-terminus
T2 sequence (P42858 1-584): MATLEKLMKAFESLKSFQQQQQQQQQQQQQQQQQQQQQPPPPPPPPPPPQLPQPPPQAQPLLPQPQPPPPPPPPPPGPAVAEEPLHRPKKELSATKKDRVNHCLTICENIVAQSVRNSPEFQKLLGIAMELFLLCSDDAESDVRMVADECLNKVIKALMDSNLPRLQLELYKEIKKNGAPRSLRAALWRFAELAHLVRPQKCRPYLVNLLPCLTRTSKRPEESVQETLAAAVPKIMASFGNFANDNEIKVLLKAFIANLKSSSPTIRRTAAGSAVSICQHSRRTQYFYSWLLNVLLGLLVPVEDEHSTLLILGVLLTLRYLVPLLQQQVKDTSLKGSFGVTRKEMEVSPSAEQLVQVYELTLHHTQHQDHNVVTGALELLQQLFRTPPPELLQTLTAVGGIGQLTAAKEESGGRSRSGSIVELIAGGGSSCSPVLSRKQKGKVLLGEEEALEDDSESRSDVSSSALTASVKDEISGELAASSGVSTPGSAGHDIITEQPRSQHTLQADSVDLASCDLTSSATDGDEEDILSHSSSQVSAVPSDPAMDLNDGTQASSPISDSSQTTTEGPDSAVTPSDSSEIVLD
Protocol: Binding of antibodies to N-terminal fragment HTT610 was determined by a standard protein capture ELISA procedure using Maxisorb™ ELISA plates (Thermo; CatNr. 439454), coated with 50 μl of a 1:5000 rabbit anti V5 mAB (Sigma, CatNr. V8137), blocking with blocking buffer (PBS, 1% BSA, 0.1% Tween 20), capturing of recombinant Huntingtin from HEK cell extracts (100 ng/μl total protein) followed by incubation with several dilutions of mouse anti HTT sera (1:100; 1:300 and 1:900) or with mAB2166 as reference (diluted 1:2000; Millipore, Cat Nr. MAB2166) for 1 hour at RT. ELISA incubations, washing and detection procedures were performed according to standard procedures.
FIG. 12: mAB M1D1 specifically recognizes recombinant Huntingtin fragment with free aspartic acid 586 at the C-terminus stronger than uncleaned recHTT610. Protein ELISA (performed as in Example 1) using recombinant Huntingtin with 610 and 586 amino acids length (HTT610 and HTT586, respectively). Values indicate the ratio of the mAB M1D1 signal (OD; protein capture ELISA as explained in Example 1) to the mAB 2166 control antibody signal. Values were normalized to reference mAB 2166 recognizing an internal epitope present in both fragments as protein loading control.

[5] = system: Huntingtin-derived peptides (p6773, p7564, p6776 and caspase region 586 peptides); experiment: Peptide ELISA of hybridoma supernatants and monoclonal antibodies; type: binding, human
Protocol: Vaccine-induced immune responses in mice were determined by ELISA using heparin as anticoagulant. ELISA plates (Nunc Maxisorb) were coated with maleimide activated BSA as carrier to which Cystein containing peptides were coupled via stable thioether bonds. For titrations, plasma dilutions were added and peptide-specific antibodies were quantified by biotinylated anti-mouse IgG (Southern Biotech, CatNr. 1034-08) as detection antibody combined with Streptavidin-POD (Roche, CatNr. 1089153) and subsequent color reaction using ABTS. EC50 values were determined using curve fitting with a 4-parameter logistic using GraphPad Prism (GraphPad Software).
For the production and isolation of monoclonal antibodies, the ClonaCell-HY Hybridoma Cloning Kit (STEMCELL technologies, CatNr. 28411) was used according to the instructions of the manufacturer. In brief, hybridoma fusions were performed with myeloma cell line SP2-0 under HAT selection and supernatants were initially screened by peptide ELISA using the immunization peptide, respectively, and an irrelevant control peptide for background determination. […] Selected colonies were picked and analyzed by DNA sequencing on an ABI3130xl Genetic Analyzer.

Row | Molecule | signal to noise ratio (recHTT610-specific signal : HEK ctrl extracts) [1] | % cleavage of target peptide [2] | phagocytosis of peptide-coated beads (FACS) [3] | recognition of HTT586 versus recHTT610 (ratio of mAB signal to mAB 2166 control signal) [4] | recognition of caspase region 586 peptides (OD) ([5]; mAB concentration 1 ng/μl, peptides p7564, p7562, p7552, p7541, p7567, p7568, p7605, p6777) | p7564 to p6776 OD signal ratio ([5]; specificity against cleaved peptide p7564, preselected mABs)
1 | B1 | best signal to noise ratio | reduce cleavage | increased phagocytosis of beads |  |  | 
2 | B2 |  |  | increased phagocytosis of beads |  |  | 
3 | B3 |  |  |  | stronger | recognizes Huntingtin peptides from the caspase 6 cleavage region of at least 7AA length containing free C-terminal Aspartic Acid | most favorable
